Measurements taken from publication PMC9257163, “Fluorescence Detection of Cancer Stem Cell Markers Using a Sensitive Nano-Aptamer Sensor”.

How the values were obtained:
TGF-β1 = TGF-β1 (UniProt P01137 279-390); assay: competition (FRET turn-on displacement of AuNPs-ssRNA); 2 uM protein; QD-aptamers redispersed in PBS; sensor annealed from 95 °C to room temperature; binding buffer, pH and temperature not stated in the material; details: chain copies: 2; label: CdSe/ZnS QD on aptamer 5' end; AuNP (25 nm) on ssRNA 5' end; partially complementary RNA duplex; about 7 aptamers per QD; ssRNA displaced by protein
TGF-β1, sequence (P01137 279-390): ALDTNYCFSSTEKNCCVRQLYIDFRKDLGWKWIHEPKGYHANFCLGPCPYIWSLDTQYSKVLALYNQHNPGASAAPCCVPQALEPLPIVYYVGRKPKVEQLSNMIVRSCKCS

IL-1α = biological target: T1, IL-1α (UniProt P01583 113-271); assay: as above; details: label: CdSe/ZnS QD on aptamer 5' end; AuNP (25 nm) on ssRNA 5' end; partially complementary RNA duplex; about 7 aptamers per QD; ssRNA displaced by protein
T1 sequence: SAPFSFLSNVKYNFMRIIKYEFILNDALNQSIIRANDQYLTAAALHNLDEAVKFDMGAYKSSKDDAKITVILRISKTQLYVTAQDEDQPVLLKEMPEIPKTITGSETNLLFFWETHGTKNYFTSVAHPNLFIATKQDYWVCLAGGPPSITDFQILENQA

EGFR = EGFR (UniProt P00533 25-645); assay: as above; details: chain copies: 2; label: CdSe/ZnS QD on aptamer 5' end; AuNP (25 nm) on ssRNA 5' end; partially complementary RNA duplex; about 7 aptamers per QD; ssRNA displaced by protein
CD133 (prominin-1) = biological target: T2, CD133 (prominin-1) (UniProt O43490 20-865); assay: competition (FRET turn-on displacement of AuNPs-ssRNA); 0-1.539 uM CD133, 5 nM QD-aptamer; maximum recovery 68%; LOD 6.99 nM (not a Kd); QD-aptamers redispersed in PBS; sensor annealed from 95 °C to room temperature; binding buffer, pH and temperature not stated in the material; details: label: CdSe/ZnS QD on aptamer 5' end; AuNP (25 nm) on ssRNA 5' end; partially complementary RNA duplex; about 7 aptamers per QD; ssRNA displaced by protein
T2 sequence: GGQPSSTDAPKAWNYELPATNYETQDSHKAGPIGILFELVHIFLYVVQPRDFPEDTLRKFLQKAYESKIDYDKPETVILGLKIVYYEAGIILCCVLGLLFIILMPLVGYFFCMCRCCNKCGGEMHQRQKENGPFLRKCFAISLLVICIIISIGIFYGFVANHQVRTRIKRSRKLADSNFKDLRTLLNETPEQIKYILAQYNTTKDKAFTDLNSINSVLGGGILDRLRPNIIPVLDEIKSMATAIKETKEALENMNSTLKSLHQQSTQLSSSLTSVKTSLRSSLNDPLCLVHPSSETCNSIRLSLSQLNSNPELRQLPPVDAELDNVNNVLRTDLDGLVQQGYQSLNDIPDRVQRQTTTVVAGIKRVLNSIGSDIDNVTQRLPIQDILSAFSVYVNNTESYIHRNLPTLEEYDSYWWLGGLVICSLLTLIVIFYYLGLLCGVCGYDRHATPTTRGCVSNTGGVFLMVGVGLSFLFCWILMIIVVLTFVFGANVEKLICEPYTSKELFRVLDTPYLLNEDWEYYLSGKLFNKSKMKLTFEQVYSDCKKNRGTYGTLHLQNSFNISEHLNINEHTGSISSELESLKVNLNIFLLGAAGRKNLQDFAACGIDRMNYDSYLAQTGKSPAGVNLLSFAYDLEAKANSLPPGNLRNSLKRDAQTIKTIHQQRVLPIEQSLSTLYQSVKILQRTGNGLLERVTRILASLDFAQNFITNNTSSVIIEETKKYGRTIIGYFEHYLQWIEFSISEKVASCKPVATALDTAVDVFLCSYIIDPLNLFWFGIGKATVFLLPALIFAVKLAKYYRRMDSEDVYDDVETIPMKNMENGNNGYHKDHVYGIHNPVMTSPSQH

B1: CD133 aptamer sensor (QD-aptamer hybridized to AuNPs-ssRNA) (mixed)
RNA 1: CCCUCCUACAUAGGG
RNA 2: CCCUAUG
modifications: 5'-NH2 on aptamer; 5'-SH on ssRNA
binding result (TGF-β1): no binding | binding result (IL-1α): no binding | binding result (EGFR): no binding | binding result (CD133 (prominin-1)): binds
